Ends that are not written are not given here.
Target: Ac-KE7 (Homo sapiens, UniProt P05067)
Assay: Rheology of Ac-KE7 mixed with inhibitor (storage modulus, gel vs solution)
Type: physicochemical
Details: 1.5 mM Ac-KE7 mixed with inhibitor in 1:20 molar ratio, 25° C.
Excerpt: Rheology. To determine the viscoelastic properties/behaviour, peptide-based hydrogels were subjected to dynamic time, strain and frequency sweep experiments using the ARES-G2 rheometer (TA Instruments, Piscataway, N.J.) with a 25.0 mm diameter stainless steel or titanium parallel plate geometry and a 0.8 mm or 1-2 mm gap distance. To ensure complete gelation and take account of the varying gelation speeds of different peptides at different concentrations, the rheology measurements were done 2 months after sample preparation. Oscillatory frequency sweep studies (measuring storage modulus (G′) vs. Angular frequency (ω)) were done at 0.1-100 rad/s using 1% strain. Oscillatory amplitude sweep studies (measuring storage modulus (G′) vs. oscillation strain % (γ)) were done using 0.01-100% strain with a constant angular frequency of 1 rad/s. All measurements were carried out at 25° C. […] The graphs display the storage moduli (G′ in Pa) as a function of (A) angular frequency (rad/sec) under 1% strain and (B) oscillation strain (%) at an angular frequency of 1 rad/sec at room temperature of 25° C. […] This can be seen from the rheological data, where the peptide-inhibitor solutions give a highly fluctuating curve for both the amplitude and frequency sweep measurements because they are in solution form; instead of a gel form.

Substance | hydrogel formation of Ac-KE7 (rheology)
Ac-LPE (Ac-Leu-Pro-Glu) [N-acetylated tripeptide Leu-Pro-Glu] | no gelation
Ac-LPG (Ac-Leu-Pro-Gly) [N-acetylated tripeptide Leu-Pro-Gly] | no gelation
